Measurements taken from the supplement of paper PMC10065799, “High-throughput profiling of sequence recognition by tyrosine kinases and SH2 domains using bacterial peptide display” (eLife, 2023).

Columns and labels:
Grb2 SH2 = Grb2 SH2 (UniProt P62993); assay: SH2 binding enrichment of the phosphorylated peptide, bacterial display (enrichment ratio); higher = better substrate or ligand; peptides without Tyr show the background
c-Src SH2 = assay: as above
SHP2-C SH2 = assay: as above
FGFR1 = FGFR1 (UniProt P11362); assay: phosphorylation enrichment, bacterial display (enrichment ratio); higher = better substrate or ligand; peptides without Tyr show the background
FGFR1, sequence (P11362 whole entry, looked up): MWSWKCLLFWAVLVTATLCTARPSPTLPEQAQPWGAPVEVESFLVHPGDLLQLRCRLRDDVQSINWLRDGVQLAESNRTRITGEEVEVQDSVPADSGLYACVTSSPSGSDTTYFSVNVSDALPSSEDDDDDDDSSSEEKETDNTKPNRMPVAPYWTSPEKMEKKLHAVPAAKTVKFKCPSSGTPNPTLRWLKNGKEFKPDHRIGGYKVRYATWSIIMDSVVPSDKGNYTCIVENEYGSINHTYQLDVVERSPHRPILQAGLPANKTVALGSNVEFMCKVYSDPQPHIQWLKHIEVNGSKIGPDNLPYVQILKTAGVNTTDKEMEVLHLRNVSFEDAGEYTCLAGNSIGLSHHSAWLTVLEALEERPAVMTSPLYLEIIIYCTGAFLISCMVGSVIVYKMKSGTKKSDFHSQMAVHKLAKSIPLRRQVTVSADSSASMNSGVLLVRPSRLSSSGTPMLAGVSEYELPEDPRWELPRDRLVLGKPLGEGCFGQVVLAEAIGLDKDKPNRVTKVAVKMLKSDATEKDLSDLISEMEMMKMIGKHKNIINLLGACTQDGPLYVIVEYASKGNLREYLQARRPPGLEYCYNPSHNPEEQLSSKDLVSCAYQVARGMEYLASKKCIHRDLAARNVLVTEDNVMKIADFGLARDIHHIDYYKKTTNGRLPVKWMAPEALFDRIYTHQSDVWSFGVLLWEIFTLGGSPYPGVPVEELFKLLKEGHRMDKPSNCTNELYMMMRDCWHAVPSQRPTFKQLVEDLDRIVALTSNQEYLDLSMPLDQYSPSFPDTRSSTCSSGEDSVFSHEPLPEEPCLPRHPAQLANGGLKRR

Fer (mouse) = assay: as above
EPHB1 = EPHB1 (UniProt P54762); assay: as above
EPHB1, sequence (P54762 whole entry, looked up): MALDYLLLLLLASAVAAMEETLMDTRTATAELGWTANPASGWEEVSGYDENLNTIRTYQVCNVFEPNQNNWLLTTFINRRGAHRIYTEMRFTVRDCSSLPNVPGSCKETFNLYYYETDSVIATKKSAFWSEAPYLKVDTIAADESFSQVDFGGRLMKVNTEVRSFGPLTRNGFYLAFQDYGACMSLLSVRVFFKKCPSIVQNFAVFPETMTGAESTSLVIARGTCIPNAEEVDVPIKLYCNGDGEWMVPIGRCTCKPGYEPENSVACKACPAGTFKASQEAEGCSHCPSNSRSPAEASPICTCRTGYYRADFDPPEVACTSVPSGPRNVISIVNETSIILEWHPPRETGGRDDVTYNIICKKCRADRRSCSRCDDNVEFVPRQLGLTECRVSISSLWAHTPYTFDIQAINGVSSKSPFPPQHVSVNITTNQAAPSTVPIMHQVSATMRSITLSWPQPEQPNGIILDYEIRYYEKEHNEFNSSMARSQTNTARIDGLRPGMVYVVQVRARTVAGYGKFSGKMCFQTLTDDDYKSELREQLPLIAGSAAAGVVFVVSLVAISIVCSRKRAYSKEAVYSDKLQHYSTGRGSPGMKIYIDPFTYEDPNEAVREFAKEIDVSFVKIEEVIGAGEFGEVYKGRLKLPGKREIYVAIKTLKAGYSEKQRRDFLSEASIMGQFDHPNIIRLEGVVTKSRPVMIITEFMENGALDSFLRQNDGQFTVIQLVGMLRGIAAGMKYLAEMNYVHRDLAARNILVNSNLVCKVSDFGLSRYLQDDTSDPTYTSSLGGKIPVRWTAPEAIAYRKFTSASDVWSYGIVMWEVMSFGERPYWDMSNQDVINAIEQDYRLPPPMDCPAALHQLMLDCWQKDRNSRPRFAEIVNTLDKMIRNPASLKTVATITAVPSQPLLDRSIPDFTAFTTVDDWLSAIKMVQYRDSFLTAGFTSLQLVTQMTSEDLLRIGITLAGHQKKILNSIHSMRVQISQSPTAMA

FGFR3 = FGFR3 (UniProt P22607); assay: as above
FGFR3, sequence (P22607 whole entry, looked up): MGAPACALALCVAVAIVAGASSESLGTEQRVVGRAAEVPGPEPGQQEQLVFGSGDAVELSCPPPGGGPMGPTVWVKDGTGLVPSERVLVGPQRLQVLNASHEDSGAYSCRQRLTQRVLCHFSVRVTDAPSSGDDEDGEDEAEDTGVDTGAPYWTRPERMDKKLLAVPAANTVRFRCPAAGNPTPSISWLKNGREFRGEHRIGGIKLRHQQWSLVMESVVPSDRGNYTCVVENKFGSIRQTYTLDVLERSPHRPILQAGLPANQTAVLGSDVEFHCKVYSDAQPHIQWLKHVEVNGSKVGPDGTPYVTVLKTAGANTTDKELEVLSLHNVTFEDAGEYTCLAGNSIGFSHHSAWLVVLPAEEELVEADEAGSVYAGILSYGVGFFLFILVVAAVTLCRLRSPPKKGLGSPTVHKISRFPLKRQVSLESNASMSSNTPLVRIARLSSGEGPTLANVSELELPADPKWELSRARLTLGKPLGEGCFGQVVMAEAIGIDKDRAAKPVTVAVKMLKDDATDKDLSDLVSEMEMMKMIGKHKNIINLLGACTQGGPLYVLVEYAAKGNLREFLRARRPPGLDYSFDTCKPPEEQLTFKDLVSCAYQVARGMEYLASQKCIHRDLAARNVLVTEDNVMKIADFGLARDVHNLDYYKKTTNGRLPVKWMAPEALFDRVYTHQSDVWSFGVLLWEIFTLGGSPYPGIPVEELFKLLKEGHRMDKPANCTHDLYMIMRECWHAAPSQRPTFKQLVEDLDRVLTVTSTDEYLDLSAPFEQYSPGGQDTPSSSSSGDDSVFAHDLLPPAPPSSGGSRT

Fes = Fes (UniProt P07332); assay: as above
Fes, sequence (P07332 whole entry, looked up): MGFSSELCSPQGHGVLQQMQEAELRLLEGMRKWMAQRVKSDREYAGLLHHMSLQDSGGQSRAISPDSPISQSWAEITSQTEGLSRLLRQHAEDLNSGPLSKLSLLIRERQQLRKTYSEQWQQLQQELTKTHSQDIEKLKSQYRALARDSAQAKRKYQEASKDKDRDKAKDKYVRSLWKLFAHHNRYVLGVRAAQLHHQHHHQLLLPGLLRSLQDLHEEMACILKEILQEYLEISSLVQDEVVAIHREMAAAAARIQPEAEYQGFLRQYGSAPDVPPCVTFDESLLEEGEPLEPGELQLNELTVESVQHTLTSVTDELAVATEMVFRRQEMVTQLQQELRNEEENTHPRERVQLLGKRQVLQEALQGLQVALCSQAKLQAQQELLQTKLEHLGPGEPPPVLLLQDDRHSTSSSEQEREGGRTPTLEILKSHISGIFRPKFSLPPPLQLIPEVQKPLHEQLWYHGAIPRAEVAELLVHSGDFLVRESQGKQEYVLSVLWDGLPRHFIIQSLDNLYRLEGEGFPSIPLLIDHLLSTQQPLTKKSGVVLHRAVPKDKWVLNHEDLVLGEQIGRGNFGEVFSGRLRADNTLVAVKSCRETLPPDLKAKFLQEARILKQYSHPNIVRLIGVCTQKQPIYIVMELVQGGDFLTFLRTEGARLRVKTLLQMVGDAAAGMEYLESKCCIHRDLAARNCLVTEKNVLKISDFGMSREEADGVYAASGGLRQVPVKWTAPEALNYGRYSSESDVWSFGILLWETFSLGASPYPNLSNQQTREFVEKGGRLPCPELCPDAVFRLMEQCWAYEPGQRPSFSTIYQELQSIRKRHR

c-Abl (mouse) = assay: as above
EPHB2 = EPHB2 (UniProt P29323); assay: as above
AncSZ = assay: as above
Fyn = Fyn (UniProt P06241); assay: as above
Jak2 = Jak2 (UniProt O60674); assay: as above
Jak2, sequence (O60674 whole entry, looked up): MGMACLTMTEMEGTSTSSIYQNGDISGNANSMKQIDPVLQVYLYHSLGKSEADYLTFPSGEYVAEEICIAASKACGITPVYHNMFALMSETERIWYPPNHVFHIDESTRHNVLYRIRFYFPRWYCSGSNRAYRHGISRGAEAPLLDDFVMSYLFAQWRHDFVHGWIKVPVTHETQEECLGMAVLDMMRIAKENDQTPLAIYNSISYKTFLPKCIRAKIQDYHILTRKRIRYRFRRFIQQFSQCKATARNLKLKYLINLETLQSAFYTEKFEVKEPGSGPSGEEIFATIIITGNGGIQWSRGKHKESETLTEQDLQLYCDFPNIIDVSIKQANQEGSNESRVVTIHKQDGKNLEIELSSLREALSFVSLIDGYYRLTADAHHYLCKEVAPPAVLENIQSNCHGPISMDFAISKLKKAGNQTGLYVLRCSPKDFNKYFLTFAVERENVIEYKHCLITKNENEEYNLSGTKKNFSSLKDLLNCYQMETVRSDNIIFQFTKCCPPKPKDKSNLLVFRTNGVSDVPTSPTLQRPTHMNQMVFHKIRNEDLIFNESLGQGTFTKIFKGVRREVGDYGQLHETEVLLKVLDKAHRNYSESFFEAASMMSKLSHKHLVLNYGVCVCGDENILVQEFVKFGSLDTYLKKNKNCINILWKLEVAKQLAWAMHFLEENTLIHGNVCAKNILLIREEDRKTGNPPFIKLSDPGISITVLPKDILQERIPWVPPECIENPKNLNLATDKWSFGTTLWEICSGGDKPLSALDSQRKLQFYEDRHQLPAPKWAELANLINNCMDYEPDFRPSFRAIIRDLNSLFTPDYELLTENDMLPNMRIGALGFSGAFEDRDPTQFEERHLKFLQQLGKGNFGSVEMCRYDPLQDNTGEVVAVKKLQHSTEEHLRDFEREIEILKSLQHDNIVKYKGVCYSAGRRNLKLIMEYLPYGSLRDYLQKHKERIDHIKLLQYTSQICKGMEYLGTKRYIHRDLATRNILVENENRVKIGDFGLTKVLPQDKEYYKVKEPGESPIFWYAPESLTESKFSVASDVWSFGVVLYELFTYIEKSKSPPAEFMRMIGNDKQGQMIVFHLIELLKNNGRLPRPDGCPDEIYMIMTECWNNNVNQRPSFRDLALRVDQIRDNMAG

Hck = Hck (UniProt P08631); assay: as above
Hck, sequence (P08631 whole entry, looked up): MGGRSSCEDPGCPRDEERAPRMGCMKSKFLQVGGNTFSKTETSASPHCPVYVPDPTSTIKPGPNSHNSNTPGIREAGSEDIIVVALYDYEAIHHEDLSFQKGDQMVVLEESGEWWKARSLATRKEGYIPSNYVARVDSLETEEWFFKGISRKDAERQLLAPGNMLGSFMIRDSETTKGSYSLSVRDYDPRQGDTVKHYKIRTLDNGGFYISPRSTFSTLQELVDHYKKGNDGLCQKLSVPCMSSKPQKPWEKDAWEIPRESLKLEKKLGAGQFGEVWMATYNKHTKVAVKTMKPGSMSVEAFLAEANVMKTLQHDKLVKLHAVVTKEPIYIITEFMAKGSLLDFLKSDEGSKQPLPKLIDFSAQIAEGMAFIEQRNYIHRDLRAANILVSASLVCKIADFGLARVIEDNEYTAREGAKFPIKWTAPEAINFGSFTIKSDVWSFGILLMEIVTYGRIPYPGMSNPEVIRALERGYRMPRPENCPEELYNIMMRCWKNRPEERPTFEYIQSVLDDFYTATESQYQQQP

MERTK = MERTK (UniProt Q12866); assay: as above
c-Src = assay: as above
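Throughout, for SH2 binding enrichment of the phosphorylated peptide, bacterial display: peptide library displayed on the E. coli surface as eCPX fusions, selected cells deep-sequenced, score is each peptide's frequency after selection divided by its frequency in the input.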
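Throughout, for phosphorylation enrichment, bacterial display: 11-residue human phosphosite peptides and single-mutation variants displayed on the E. coli surface, counted by deep sequencing, each peptide's frequency after selection divided by its frequency in the unselected input library; frequency after pTyr selection over input frequency; kinase dosed for 20-30% of maximal phosphorylation in three min.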

Sequence	SH2 binding enrichment (Grb2 SH2)	SH2 binding enrichment (c-Src SH2)	SH2 binding enrichment (SHP2-C SH2)	phosphorylation enrichment (FGFR1)	phosphorylation enrichment (Fer (mouse))	phosphorylation enrichment (EPHB1)	phosphorylation enrichment (FGFR3)	phosphorylation enrichment (Fes)	phosphorylation enrichment (c-Abl (mouse))	phosphorylation enrichment (EPHB2)	phosphorylation enrichment (AncSZ)	phosphorylation enrichment (Fyn)	phosphorylation enrichment (Jak2)	phosphorylation enrichment (Hck)	phosphorylation enrichment (MERTK)	phosphorylation enrichment (c-Src)
LQRVQYDLQKA [DSP_Y1512]	0.948	0.565	0.831	0.897	0.58	1.3	0.816	0.788	0.496	0.907	0.872	0.582	0.642	0.397	0.646	0.409
DLAGRYFALRS [CKB_Y173_K177R_YF]	0.905	0.738	0.628	0.447	0.36	0.419	0.394	0.579	0.554	0.371	0.587	0.38	0.761	0.4	0.476	0.347
RHPEVYHHLGV [NVL_Y290]	1	1.05	1.17	1.08	0.423	2.11	0.602	0.787	0.701	0.419	0.778	0.419	0.823	1.09	0.537	0.632
SSEILYHIIKG [CDH17_Y489_K486E]	1.2	2.4	1.18	10.9	1.08	0.806	8.65	0.875	10.4	0.684	1.38	2.85	1.69	5.02	8.04	4.11
TCFDKYTGNTY [FN1_Y101]	0.924	0.472	0.754	0.463	0.534	0.519	0.648	1.16	0.717	0.63	1.3	0.511	1.01	0.516	0.345	0.584
DPADRYLTEQC [CDKL5_Y286]	0.918	0.507	0.747	0.458	0.53	0.485	0.731	1.12	0.713	0.558	0.986	0.478	0.947	0.506	0.446	0.523
EEQKKYSNAMK [SCN5A_Y1494_Y1495S]	0.82	0.497	0.617	0.456	0.353	0.429	0.529	0.723	0.772	0.539	0.611	0.377	0.56	0.37	0.327	0.404
EYQLPYYNMVP [BMPR1A_Y457]	9.58	3.74	1.87	14.1	5.56	2.81	11.9	1.12	3	3.64	6.15	3.83	9.58	3.23	7.06	5.13
IEKLTYIDEWF [CPS1_Y872_K875E]	0.698	0.488	0.719	0.567	0.548	0.624	0.737	1.35	0.81	0.557	1.18	0.453	1.17	0.472	0.488	0.544
IRKDLYANNVM [ACTA1_Y296]	1.21	0.732	0.381	0.447	0.436	0.605	0.588	0.863	0.576	0.527	0.559	0.488	0.772	0.572	0.413	0.419
KWHREYNFKFV [RICTOR_Y835_S837F_YF]	1.27	1.25	1.77	0.474	0.622	0.488	0.585	0.944	0.729	0.531	0.859	0.372	0.937	0.432	0.436	0.429
QGLRLYRAHLA [BTK_Y617_P619A]	1.38	1.21	1.61	0.521	0.467	0.587	0.677	0.978	0.854	0.602	1.43	0.576	0.878	0.497	0.582	0.523
HNGDRYFKGIV [DCX_Y64_R59H]	0.821	0.413	0.762	0.286	0.366	0.449	0.542	0.716	0.585	0.344	0.707	0.515	0.529	0.429	0.692	0.585
DNEAIYDICRR [TUBA4A_Y210]	0.613	0.516	0.546	0.671	10.7	4.07	0.843	1.45	16.1	4.97	2.79	8.6	1.03	7.21	5.98	5.7
DVELLYPLKEK [EPHX1_Y283_V285L]	0.893	0.448	0.787	0.452	0.422	0.395	0.751	1	0.695	0.438	1.08	0.484	0.866	0.495	0.426	0.439
KSLFHHRQFSA [CPS1_Y1491_Y1491H_YF]	0.843	0.521	0.92	0.353	0.297	0.418	0.373	0.543	0.431	0.295	0.448	0.403	0.407	0.297	0.36	0.279
